From patent US20140328939A1, “METHOD FOR PREPARING BIOCOMPATIBLE SMALL INTESTINAL MUCOSA HYDROGEL CAPABLE OF CONTROLLING IN-VIVO DEGRADATION PERIOD” (AJOU UNIVERSITY INDUSTRY-ACADEMIC COOPERATION FOUNDATION, priority 2011, published 2014)

Assay: In-vivo drug release test (FITC-labeled albumin)
Conditions: 0.5 mL subcutaneous, SD rats; FITC-BSA 1 mg/mL
Procedure: The prepared small intestinal submucosa powder was dissolved in phosphate buffered saline to 10, 15 and 20 wt %, respectively, to prepare homogeneous solutions. Then, FITC-labeled albumin (FITC-BSA) was added to a concentration of 1 mg/mL. 0.5 mL of the albumin-containing small intestine submucosa solutions were subcutaneously injected to nine SD rats (male, 8 weeks old, 350-380 g) using a syringe (21 G, 1-cc needle). For comparison, 0.5 mL of a solution containing FITC-labeled albumin of the same concentration was subcutaneously injected to three rats. When only albumin was subcutaneously injected, the drug was not released any more after 1 day. In contrast, in case of the albumin-containing small intestinal submucosa hydrogel, the drug was continuously released for about 9 days.

albumin: FITC-labeled albumin (FITC-BSA) solution, model drug injected alone for comparison
duration of drug release (albumin concentration in blood): ≤ 1 days
